Measurements taken from publication PMC3529520.

Experiments:
[1] = molecular target: YFP-tagged murine Syx S806A (mouse) (UniProt Q66T02); assay: co-IP
Mupp1 = Mupp1 (UniProt O75970); assay: co-IP with anti-GFP, Mupp1 blot; conditions: reference: wild-type YFP-Syx; sites S806

Chain of UniProt Q66T02 (Q66T02 whole entry S806A): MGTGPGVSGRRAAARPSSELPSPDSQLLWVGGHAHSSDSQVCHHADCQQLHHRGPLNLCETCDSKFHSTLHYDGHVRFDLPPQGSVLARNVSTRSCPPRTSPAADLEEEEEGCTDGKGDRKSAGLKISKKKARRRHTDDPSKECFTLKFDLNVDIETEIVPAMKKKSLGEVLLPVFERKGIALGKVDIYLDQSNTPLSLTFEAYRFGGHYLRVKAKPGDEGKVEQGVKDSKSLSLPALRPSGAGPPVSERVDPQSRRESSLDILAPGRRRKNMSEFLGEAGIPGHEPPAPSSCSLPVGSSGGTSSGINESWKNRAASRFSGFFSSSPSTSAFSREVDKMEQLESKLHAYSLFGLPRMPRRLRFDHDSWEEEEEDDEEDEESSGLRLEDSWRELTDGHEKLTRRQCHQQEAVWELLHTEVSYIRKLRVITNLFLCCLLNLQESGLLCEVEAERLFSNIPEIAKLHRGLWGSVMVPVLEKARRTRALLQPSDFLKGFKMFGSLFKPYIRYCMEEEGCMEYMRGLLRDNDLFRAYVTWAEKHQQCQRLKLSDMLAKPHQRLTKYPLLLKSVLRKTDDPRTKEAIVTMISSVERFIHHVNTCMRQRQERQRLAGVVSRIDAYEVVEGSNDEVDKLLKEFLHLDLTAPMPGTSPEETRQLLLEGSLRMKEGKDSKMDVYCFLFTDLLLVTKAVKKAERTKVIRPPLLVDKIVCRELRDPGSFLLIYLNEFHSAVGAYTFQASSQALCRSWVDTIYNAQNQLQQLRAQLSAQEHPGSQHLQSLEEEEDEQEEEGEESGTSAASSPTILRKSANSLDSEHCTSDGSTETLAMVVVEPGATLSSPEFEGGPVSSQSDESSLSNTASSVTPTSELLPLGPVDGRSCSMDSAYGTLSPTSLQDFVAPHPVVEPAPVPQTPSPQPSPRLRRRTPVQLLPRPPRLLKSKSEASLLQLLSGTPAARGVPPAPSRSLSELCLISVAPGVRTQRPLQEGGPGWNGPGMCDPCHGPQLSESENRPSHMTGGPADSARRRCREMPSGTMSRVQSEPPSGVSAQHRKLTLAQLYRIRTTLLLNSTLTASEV

Row | Substance | amount of Mupp1 coimmunoprecipitated, fold of that with YFP-Syx [1] [fold] | fold change (Mupp1)
1 | Mupp1 (multiple PDZ domain protein 1), O75970 1-2070 | 2 | –
2 | Syx (murine, YFP-mSyx) (from UniProt Q66T02) YFP-Syx-S806A | – | stronger
